Here are results for one molecule from patent publication US20120165204A1 (UNIVERSITY OF NORTH CAROLINA AT CHAPEL HILL, published 2012).

This assay addresses T1, 546-4 T17N (LOV2 carries non-covalent FMN; the Rac1 C-terminal CAAX box may be prenylated and trimmed in cells).
T1 construct: only the lane label names it
Description: pull-down (CoIP) with FLAG-tagged PAK1 co-expressed in HEK 293 cells, FLAG/M2-agarose, in the dark; Western blot. Background: A western blot detects proteins with antibodies after separation by electrophoresis.
Description: The cells were lysed in 50 mM Tris pH 7.5, 150 mM NaCl, and 1% Triton X-100 (lysis buffer) with addition of EDTA-free protease inhibitor cocktail (Roche). After brief centrifugation, the supernatants were incubated with FLAG/M2-agarose (Sigma) followed by washes with lysis buffer, and elution with lysis buffer containing 200 μg/ml 3× FLAG peptide (Sigma). All procedures were done at 4° C. under red light, facilitated using Handee spin columns (Pierce).

B1: FLAG-tagged PAK1 (enzyme, UniProt Q13153 1-545, looked up)
chain: MSNNGLDIQDKPPAPPMRNTSTMIGAGSKDAGTLNHGSKPLPPNPEEKKKKDRFYRSILPGDKTNKKKEKERPEISLPSDFEHTIHVGFDAVTGEFTGMPEQWARLLQTSNITKSEQKKNPQAVLDVLEFYNSKKTSNSQKYMSFTDKSAEDYNSSNALNVKAVSETPAVPPVSEDEDDDDDDATPPPVIAPRPEHTKSVYTRSVIEPLPVTPTRDVATSPISPTENNTTPPDALTRNTEKQKKKPKMSDEEILEKLRSIVSVGDPKKKYTRFEKIGQGASGTVYTAMDVATGQEVAIKQMNLQQQPKKELIINEILVMRENKNPNIVNYLDSYLVGDELWVVMEYLAGGSLTDVVTETCMDEGQIAAVCRECLQALEFLHSNQVIHRDIKSDNILLGMDGSVKLTDFGFCAQITPEQSKRSTMVGTPYWMAPEVVTRKAYGPKVDIWSLGIMAIEMIEGEPPYLNENPLRALYLIATNGTPELQNPEKLSAIFRDFLNRCLEMDVEKRGSAKELLQHQFLKIAKPLSSLTPLIAAAKEATKNNH
notes: Bait of the pull-down assays (FLAG/M2-agarose); not shown: FLAG tag
For the molecule B1, the binding result is “no binding”.
